Several values for one entry are separate records, joined by “and”; a condition that tells them apart may be missing. Equal values may be shown once. Read-outs that look alike come from different tables or passages of the source.
What was measured:
[1] = molecular target: BoNT/A binding domain (rBoNT/A-HC) (Clostridium botulinum)
[2] = molecular target: BoNT/A binding domain (rBoNT/A-HC) (Clostridium botulinum); remark: listed apart in the source

Sequence of BoNT/A binding domain (rBoNT/A-HC) (Clostridium botulinum) (P0DPI1 873-1296): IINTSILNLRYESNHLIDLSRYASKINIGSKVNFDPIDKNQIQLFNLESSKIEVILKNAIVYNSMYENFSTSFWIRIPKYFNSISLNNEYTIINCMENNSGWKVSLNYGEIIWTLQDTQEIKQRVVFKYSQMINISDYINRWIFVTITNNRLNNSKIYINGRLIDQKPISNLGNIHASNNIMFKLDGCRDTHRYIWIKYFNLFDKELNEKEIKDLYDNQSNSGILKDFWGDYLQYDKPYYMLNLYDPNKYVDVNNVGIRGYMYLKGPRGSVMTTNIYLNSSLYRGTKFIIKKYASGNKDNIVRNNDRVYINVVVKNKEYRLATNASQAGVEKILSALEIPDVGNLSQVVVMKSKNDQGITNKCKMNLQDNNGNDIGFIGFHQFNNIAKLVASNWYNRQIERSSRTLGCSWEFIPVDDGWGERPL

Substance	RUMax [1]	Percentage increase [1]	Percentage increase [2]	RUMax [2]
FGFR1 (transfected, pReceiver-M02/FGFR1) (receptor)	480 RU and 470 RU and 330 RU	–	–	–
FGFR2 (transfected, pReceiver-M02/FGFR2) (receptor)	510 RU and 460 RU and 450 RU	46% and 24% and 40%	–	–
FGFR3 (transfected, pReceiver-M02/FGFR3) (receptor)	510 RU and 450 RU	46% and 38% and 40%	73%	225 RU and 110 RU
FGFR3 and SV2C co-transfected	–	–	27% and 13%	165 RU and 90 RU
SV2C (transfected, pReceiver-M02/SV2C) (receptor)	–	–	8% and 6%	140 RU and 85 RU

— patent US20090263836A1
